These substances were tested against acetylcholine receptor (Homo sapiens, UniProt P02708) (assay: SPR binding affinity (RU) of optimized 5mer/6mer/7mer peptides, Examples 6-7). Conditions: SPR, Resonance Units; 5mer Bottom sequence (bottom combinations); peptides tested at 10 μM.
Protocol: Based on the frequencies of occurrence of the top 7 amino acids from Table 7 in Example 5, 600 peptides comprising these amino acids (top combinations) and those comprising the 13 less frequently occurring amino acids (bottom combinations) were synthesized for each series of 5mer, 6mer-1, and 6mer-2. The binding affinity of each sequence for the acetylcholine receptor was measured using Surface Plasmon Resonance (SPR) analysis method. The peptides were tested at a concentration of 10 μM. Additionally, the average binding affinities of the top and bottom combinations in each series are depicted in FIGS. 5-7.
Representative peptides identified in Example 6, two in each library, including 5mers (73, 311) and 6mers-1 (43, 210) and 6mers-2 (136, 233), were compared with the pre-optimized 6mer, 5mer-ND, and Synake.

Sequence of acetylcholine receptor (P02708 21-457): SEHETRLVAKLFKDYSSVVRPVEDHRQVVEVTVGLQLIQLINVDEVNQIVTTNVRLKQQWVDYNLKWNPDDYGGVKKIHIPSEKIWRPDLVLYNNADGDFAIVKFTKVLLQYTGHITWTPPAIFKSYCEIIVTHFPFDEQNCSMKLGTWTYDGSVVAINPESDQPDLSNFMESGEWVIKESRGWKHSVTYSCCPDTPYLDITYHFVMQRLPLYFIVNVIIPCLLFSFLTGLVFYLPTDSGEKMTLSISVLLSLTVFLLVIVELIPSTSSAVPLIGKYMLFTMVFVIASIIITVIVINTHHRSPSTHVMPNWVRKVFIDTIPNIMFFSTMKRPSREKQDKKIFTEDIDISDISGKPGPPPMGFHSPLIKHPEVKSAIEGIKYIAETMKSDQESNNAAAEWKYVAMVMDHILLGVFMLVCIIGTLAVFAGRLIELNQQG

First: 5mer-637 (KCDHK)
Second: 5mer-638 (KHCIR)
The Binding affinity of the first is lower: 28 Ru for the first, 33 Ru for the second.

First: 5mer-639 (KETWK)
Second: 5mer-640 (KNPHK)
The Binding affinity of the first is lower: 13 Ru for the first, 15 Ru for the second.

5mer-641 (RITWK) and 5mer-642 (RAWDR) are the same in Binding affinity: 22 Ru for the first, 22 Ru for the second.

First: 5mer-643 (KHDGR)
Second: 5mer-644 (RMKWK)
The Binding affinity of the first is higher: 28 Ru for the first, 24 Ru for the second.

First: 5mer-645 (RHKDK)
Second: 5mer-646 (KDTKR)
The Binding affinity of the first is higher: 20 Ru for the first, 16 Ru for the second.

First: 5mer-647 (KHTVK)
Second: 5mer-648 (KNKKR)
The Binding affinity of the first is higher: 29 Ru for the first, 15 Ru for the second.

First: 5mer-649 (RYSFK)
Second: 5mer-650 (RPEDK)
The Binding affinity of the first is lower: 20 Ru for the first, 22 Ru for the second.

Compared with 5mer-651 (RFTVR), 5mer-652 (RCAAR) is higher in Binding affinity: 11 Ru for the first, 23 Ru for the second.

First: 5mer-653 (KTTWK)
Second: 5mer-654 (KEWNR)
The Binding affinity of the first is lower: 16 Ru for the first, 27 Ru for the second.

Compared with 5mer-655 (RKCIR), 5mer-656 (KATGR) is lower in Binding affinity: 15 Ru for the first, 13 Ru for the second.

First: 5mer-657 (KDNDR)
Second: 5mer-658 (KKWGR)
The Binding affinity of the first is lower: 22 Ru for the first, 31 Ru for the second.

Compared with 5mer-659 (KIHEK), 5mer-660 (KFDVK) is lower in Binding affinity: 22 Ru for the first, 11 Ru for the second.

Compared with 5mer-661 (RCNMK), 5mer-662 (KIEEK) is lower in Binding affinity: 30 Ru for the first, 28 Ru for the second.

First: 5mer-663 (RATPR)
Second: 5mer-664 (KPTWR)
The Binding affinity of the first is higher: 31 Ru for the first, 17 Ru for the second.

Compared with 5mer-665 (KTWEK), 5mer-666 (RHDWR) is lower in Binding affinity: 26 Ru for the first, 18 Ru for the second.

Compared with 5mer-667 (RDCHR), 5mer-668 (RPHAK) is higher in Binding affinity: 16 Ru for the first, 27 Ru for the second.

Compared with 5mer-669 (RNPER), 5mer-670 (KPCVK) is lower in Binding affinity: 24 Ru for the first, 23 Ru for the second.

Going from 5mer-671 (KMNAK) to 5mer-672 (KHAPK), the Binding affinity falls from 21 Ru to 12 Ru.

Compared with 5mer-673 (RISPR), 5mer-674 (KETHR) is higher in Binding affinity: 14 Ru for the first, 22 Ru for the second.

Going from 5mer-675 (RKPGR) to 5mer-676 (RTMFR), the Binding affinity falls from 31 Ru to 18 Ru.

Compared with 5mer-677 (RCEMR), 5mer-678 (KYMGR) is higher in Binding affinity: 15 Ru for the first, 23 Ru for the second.

5mer-679 (KKTVK) and 5mer-680 (RFTER) are the same in Binding affinity: 21 Ru for the first, 21 Ru for the second.

First: 5mer-681 (KDTMR)
Second: 5mer-682 (KPNVK)
The Binding affinity of the first is lower: 18 Ru for the first, 31 Ru for the second.

Compared with 5mer-683 (KYPDK), 5mer-684 (KCAER) is lower in Binding affinity: 32 Ru for the first, 27 Ru for the second.

First: 5mer-685 (RNDIK)
Second: 5mer-686 (RFNIR)
The Binding affinity of the first is higher: 21 Ru for the first, 18 Ru for the second.

Compared with 5mer-687 (RMEIR), 5mer-688 (RPHFK) is higher in Binding affinity: 22 Ru for the first, 31 Ru for the second.

First: 5mer-689 (RFSDK)
Second: 5mer-690 (RAEIK)
The Binding affinity of the first is higher: 20 Ru for the first, 12 Ru for the second.

Compared with 5mer-691 (KEWEK), 5mer-692 (RDHWK) is lower in Binding affinity: 16 Ru for the first, 15 Ru for the second.

Compared with 5mer-693 (RPSKK), 5mer-694 (KNNAR) is higher in Binding affinity: 17 Ru for the first, 24 Ru for the second.

Compared with 5mer-695 (KKPDR), 5mer-696 (RCEHR) is lower in Binding affinity: 26 Ru for the first, 11 Ru for the second.

First: 5mer-697 (KASKK)
Second: 5mer-698 (KFDWK)
The Binding affinity of the first is higher: 25 Ru for the first, 12 Ru for the second.

Compared with 5mer-699 (KKNER), 5mer-700 (RAWER) is higher in Binding affinity: 12 Ru for the first, 17 Ru for the second.

Going from 5mer-701 (RNHNK) to 5mer-702 (KISHK), the Binding affinity rises from 22 Ru to 30 Ru.

Going from 5mer-703 (KPNWR) to 5mer-704 (RFMGK), the Binding affinity rises from 22 Ru to 28 Ru.

Compared with 5mer-705 (RHAKK), 5mer-706 (RKMAK) is higher in Binding affinity: 15 Ru for the first, 27 Ru for the second.

Going from 5mer-707 (KIEAK) to 5mer-708 (KPKAR), the Binding affinity falls from 32 Ru to 20 Ru.

Going from 5mer-709 (RHTIR) to 5mer-710 (KEKAR), the Binding affinity falls from 27 Ru to 21 Ru.

Going from 5mer-711 (KECIK) to 5mer-712 (RADFK), the Binding affinity falls from 32 Ru to 18 Ru.

Going from 5mer-713 (KYPKK) to 5mer-714 (RPCAK), the Binding affinity rises from 16 Ru to 32 Ru.

First: 5mer-715 (KCNGR)
Second: 5mer-716 (KINVR)
The Binding affinity of the first is lower: 22 Ru for the first, 25 Ru for the second.

Going from 5mer-717 (KCKFR) to 5mer-718 (RNKKK), the Binding affinity falls from 20 Ru to 19 Ru.

Compared with 5mer-719 (KISER), 5mer-720 (KDPKR) is higher in Binding affinity: 21 Ru for the first, 32 Ru for the second.

Compared with 5mer-721 (RYSKK), 5mer-722 (KNHKK) is higher in Binding affinity: 22 Ru for the first, 33 Ru for the second.

Compared with 5mer-723 (RASPR), 5mer-724 (KTTAK) is lower in Binding affinity: 22 Ru for the first, 14 Ru for the second.

Compared with 5mer-725 (RNADR), 5mer-726 (KATMK) is higher in Binding affinity: 19 Ru for the first, 33 Ru for the second.

First: 5mer-727 (KMDAR)
Second: 5mer-728 (KPHIK)
The Binding affinity of the first is higher: 31 Ru for the first, 19 Ru for the second.

Going from 5mer-729 (KEPDK) to 5mer-730 (KFCNK), the Binding affinity rises from 23 Ru to 27 Ru.

First: 5mer-731 (KADHK)
Second: 5mer-732 (KIMWR)
The Binding affinity of the first is lower: 18 Ru for the first, 22 Ru for the second.

Compared with 5mer-733 (KTCDR), 5mer-734 (KATER) is lower in Binding affinity: 23 Ru for the first, 16 Ru for the second.

Going from 5mer-735 (RHCER) to 5mer-736 (KKHHR), the Binding affinity rises from 11 Ru to 24 Ru.

First: 5mer-737 (RINVR)
Second: 5mer-738 (KTPMK)
The Binding affinity of the first is lower: 13 Ru for the first, 29 Ru for the second.

First: 5mer-739 (KDCPR)
Second: 5mer-740 (RMMGK)
The Binding affinity of the first is lower: 16 Ru for the first, 21 Ru for the second.

Compared with 5mer-741 (KPTPR), 5mer-742 (RNSDK) is lower in Binding affinity: 14 Ru for the first, 11 Ru for the second.

Compared with 5mer-743 (KYAFR), 5mer-744 (KTEAK) is higher in Binding affinity: 15 Ru for the first, 32 Ru for the second.

Going from 5mer-745 (RMEIK) to 5mer-746 (RMTVK), the Binding affinity rises from 14 Ru to 26 Ru.

First: 5mer-747 (RKTDK)
Second: 5mer-748 (REPMK)
The Binding affinity of the first is higher: 31 Ru for the first, 12 Ru for the second.

First: 5mer-749 (KHTWR)
Second: 5mer-750 (KEADK)
The Binding affinity of the first is higher: 24 Ru for the first, 13 Ru for the second.

First: 5mer-751 (RYMMR)
Second: 5mer-752 (KAWVK)
The Binding affinity of the first is lower: 20 Ru for the first, 26 Ru for the second.

First: 5mer-753 (RKTPK)
Second: 5mer-754 (RKNER)
The Binding affinity of the first is higher: 30 Ru for the first, 29 Ru for the second.

Going from 5mer-755 (KNWDR) to 5mer-756 (RCDWR), the Binding affinity rises from 15 Ru to 18 Ru.

Going from 5mer-757 (KYCMR) to 5mer-758 (KCDFK), the Binding affinity rises from 17 Ru to 30 Ru.

Going from 5mer-759 (KHKMR) to 5mer-760 (RIWAR), the Binding affinity rises from 17 Ru to 19 Ru.

Compared with 5mer-761 (RMPWR), 5mer-762 (KMPER) is lower in Binding affinity: 31 Ru for the first, 21 Ru for the second.

First: 5mer-763 (RCHVR)
Second: 5mer-764 (KTWPK)
The Binding affinity of the first is higher: 30 Ru for the first, 19 Ru for the second.
